# Data reported in IntAct's records for PubMed 24270572.
# B1: Endoribonuclease ZC3H12A (Homo sapiens), Q5D1E8 (parent)
# chain: MSGPCGEKPVLEASPTMSLWEFEDSHSRQGTPRPGQELAAEEASALELQMKVDFFRKLGYSSTEIHSVLQKLGVQADTNTVLGELVKHGTATERERQTSPDPCPQLPLVPRGGGTPKAPNLEPPLPEEEKEGSDLRPVVIDGSNVAMSHGNKEVFSCRGILLAVNWFLERGHTDITVFVPSWRKEQPRPDVPITDQHILRELEKKKILVFTPSRRVGGKRVVCYDDRFIVKLAYESDGIVVSNDTYRDLQGERQEWKRFIEERLLMYSFVNDKFMPPDDPLGRHGPSLDNFLRKKPLTLEHRKQPCPYGRKCTYGIKCRFFHPERPSCPQRSVADELRANALLSPPRAPSKDKNGRRPSPSSQSSSLLTESEQCSLDGKKLGAQASPGSRQEGLTQTYAPSGRSLAPSGGSGSSFGPTDWLPQTLDSLPYVSQDCLDSGIGSLESQMSELWGVRGGGPGEPGPPRAPYTGYSPYGSELPATAAFSAFGRAMGAGHFSVPADYPPAPPAFPPREYWSEPYPLPPPTSVLQEPPVQSPGAGRSPWGRAGSLAKEQASVYTKLCGVFPPHLVEAVMGRFPQLLDPQQLAAEILSYKSQHPSE
# Variants of: B1
# Settings: with ubp10_human USP10, Q14694
# Sequence of ubp10_human USP10, Q14694 (Q14694 whole entry): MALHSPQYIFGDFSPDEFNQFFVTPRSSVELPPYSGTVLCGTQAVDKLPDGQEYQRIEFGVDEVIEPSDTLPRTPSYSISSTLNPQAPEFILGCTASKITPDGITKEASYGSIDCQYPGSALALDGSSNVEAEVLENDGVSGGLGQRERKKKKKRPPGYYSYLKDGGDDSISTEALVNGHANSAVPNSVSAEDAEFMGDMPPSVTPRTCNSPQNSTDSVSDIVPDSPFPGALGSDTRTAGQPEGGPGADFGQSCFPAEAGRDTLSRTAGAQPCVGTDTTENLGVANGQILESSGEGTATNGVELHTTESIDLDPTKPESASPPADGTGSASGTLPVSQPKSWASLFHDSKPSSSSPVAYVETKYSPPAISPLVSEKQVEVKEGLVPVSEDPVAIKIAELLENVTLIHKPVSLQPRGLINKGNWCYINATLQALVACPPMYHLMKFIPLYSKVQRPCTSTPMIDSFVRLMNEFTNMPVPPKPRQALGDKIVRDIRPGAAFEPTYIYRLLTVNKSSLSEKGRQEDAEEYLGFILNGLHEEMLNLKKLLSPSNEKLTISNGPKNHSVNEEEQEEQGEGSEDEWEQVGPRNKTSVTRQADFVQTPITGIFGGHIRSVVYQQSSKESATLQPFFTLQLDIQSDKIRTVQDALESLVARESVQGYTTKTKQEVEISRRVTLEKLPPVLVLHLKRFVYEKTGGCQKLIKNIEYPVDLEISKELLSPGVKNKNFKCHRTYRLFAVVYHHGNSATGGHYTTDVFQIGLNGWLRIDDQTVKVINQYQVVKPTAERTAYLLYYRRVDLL
row,Variant,effect of a mutation on the interaction
1,C306R,disrupting interaction

# Variants of: B1
# Settings: with ubp10_human USP10, Q14694
# Remark: another data set of the same source
row,Variant,effect of a mutation on the interaction
1,D141N,disrupting interaction
